Source: the RNAGym collection of RNA variant scans (doi:10.7554/elife.90254)

B1: LINE1-full (parent)
chain: UACGUAGGUGGUUUUCCCCUGAUAGUGCUAAGGGGGCCUGGAAGUUUGGACUGGGCAGAGCUCAACACAGCGUGGCAAAGUGGCUGUGGCUAGACUGCCUCUCUGGAUUCCUCGUCACUCAGCAGGGCAUCUCUGAGAGAAAUGCC

Variants of: B1
Test: self-cleavage, relative activity (ratio to wild type); higher = more cleavage; in vitro, sequencing; the parent is a self-cleaving ribozyme

Variant	self-cleavage
UACGUAGGUGGUUUUCCCCUGAUAGUGCUAAGGGGGCCUGGAAGUUUGGACUGGGCAGAGCUCAACACAGCGUGGCAAAGUGGCUAUGGCUAGACUGCCUCUCUGGAUUCCACGUCACUCAGCAGGGCAUCUCUGAGAGAAAUGCC [G86A U112A]	0.08
UACGCAGGUGGUUUUCCCCUGAUAGUGCUAAGGGGGCCUGGAAGUUUGGACUGGGCAGAGCUCAACACAGCGUGGCAAAGUGGCUGUGGCUAGACUGCCUCUCUGGAUUCCUCGUCACUCAGCAGGGCAUCCCUGAGAGAAAUGCC [U5C U132C]	0.86
UACGUAGGUGGUUUUCCCCUGAUAGUGCUAAGGGGGCCUGGAAGUUAGGACUGGGCAGAGCUCUACACAGCGUGGCAAAGUGGCUGUGGCUAGACUGCCUCUCUGGAUUCCUCGUCACUCAGCAGGGCAUCUCUGAGAGAAAUGCC [U47A A64U]	0.44
UACGUAGGUGGCUUUCCCCUGAUAGUGCUAAGGGGGCCUGGAAGUUUGGACUGGGCAGAGCUCAACACAGCGUGGCAAAGUGGCUGUGGCUAGACUGCCUCUCUGGAUUCCUCGACACUCAGCAGGGCAUCUCUGAGAGAAAUGCC [U12C U115A]	0.87
UACGUAGGUGGUUUCUCCCUGAUAGUGCUAAGGGGGCCUGGAAGUUUGGACUGGGCAGAGCUCAACACAGCGUGGCAAAGUGGCUGUGGCUAGACUGCCUCUCUGGAUUCCUCGUCACUCAGCAGGGCAUCUCUGAGAGAAAUGCC [U15C C16U]	1.02
UACGUAGGUGGUUUUCCCCAGAUAGUGCUAAGGGGACCUGGAAGUUUGGACUGGGCAGAGCUCAACACAGCGUGGCAAAGUGGCUGUGGCUAGACUGCCUCUCUGGAUUCCUCGUCACUCAGCAGGGCAUCUCUGAGAGAAAUGCC [U20A G36A]	0.94
UACGUAGGUGGUUCUCCCCUGAUAGUGCUAAGGGGGCCUGGAAGUUUGGACUGGGCAGAGCUCAACACAGCGUGGCAAAGUGGCUGUGGCUAGACUGCCUCUCUGGAUUCAUCGUCACUCAGCAGGGCAUCUCUGAGAGAAAUGCC [U14C C111A]	1.2
UACGUAGGUGGUUUUCCCCUGAUAGUGCUAAGGGGGCCUGGAAGUUUGGACUGGGCAGAGCUCAACACAGCGUGGCUAAGUGGCUGUGGCUAGACUGCCUCUCUGGAUUCCUCGUCACUCAGCAGGGCAUCUCUGAGAGGAAUGCC [A77U A140G]	1.37
UACGUAGGUGGUUUUCCCCUGAUAGUGCUAAGGGGGCCUGGAAGUUUGGACUGGGCAGAGCUCAAGACAGCGUGGCAAAGAGGCUGUGGCUAGACUGCCUCUCUGGAUUCCUCGUCACUCAGCAGGGCAUCUCUGAGAGAAAUGCC [C66G U81A]	0.02
UACGUAGGUGGUUUUCCCCUGAUAGUGCUAAGGGAGCCUGGAGGUUUGGACUGGGCAGAGCUCAACACAGCGUGGCAAAGUGGCUGUGGCUAGACUGCCUCUCUGGAUUCCUCGUCACUCAGCAGGGCAUCUCUGAGAGAAAUGCC [G35A A43G]	0.71
UACGUAGGUGGUUUUCCCCUGAUAGUGCUAAGGGGGCCUGGGAGUUUGGACUGGGCAGAGCUCAACACAGCGUGGCAAAGUGGCUGUGGCUAGACUGCCUCUCUGGAUUCCUCGUCACUCAGCAGGGCAUCUCUGAGAGAAAUGCC [A42G]	1.38
UACGUAGGUGGUUUUCCCCUGAUAGUGCUAAGGGGGCCUGGAAGUUUGGACUGGGCAGAGCUCAACACAGCGUGGCAAAGUGGCUGUCGCUAGACUGCCUCUCUGGAUUCCUCGUCACUCAGCAGGGCAUCUCUGAGAGGAAUGCC [G88C A140G]	0
UACGUAGGUGGUUUUCCCCUGAUAGUGCUAAGGGGGCUUGGAAGUUUGGACUGGGCAGAGCUCAACACAGCGUGGCAAAGUGGCUGUGGCUAGACAGCCUCUCUGGAUUCCUCGUCACUCAGCAGGGCAUCUCUGAGAGAAAUGCC [C38U U96A]	0.04
UACGUAGGUGGUUUUCCCCUGAUAGUGCUAAGGGGGCCUGGAAGAUUGGACUGGGCAGAGCUCAACACAGCGUGGCAAAGUGGCUGUGCCUAGACUGCCUCUCUGGAUUCCUCGUCACUCAGCAGGGCAUCUCUGAGAGAAAUGCC [U45A G89C]	0.31
UACGUAGGUGGUUAUCCCCUGAUAGUGCUAAGGGGGCCUGGAAGUUUGGACUGGGCAGAGCUCAACGCAGCGUGGCAAAGUGGCUGUGGCUAGACUGCCUCUCUGGAUUCCUCGUCACUCAGCAGGGCAUCUCUGAGAGAAAUGCC [U14A A67G]	0.59
UACGUAGGUGGUUUUCCCCUGAUAGUGCUAUGGGGGCCUGGGAGUUUGGACUGGGCAGAGCUCAACACAGCGUGGCAAAGUGGCUGUGGCUAGACUGCCUCUCUGGAUUCCUCGUCACUCAGCAGGGCAUCUCUGAGAGAAAUGCC [A31U A42G]	1.46
UACGUAGGUGGUUUUCCCCUGCUAGUGCUAAGGGGGCCUGGAAGUUUGGACUGGGCAGAGCUCAACACAGCGUGGCAAAGUGGCUGUGGCUAGACUGCCUCUCUGGAUUCCUCGUCACUCAGCAGGGCAUCUCUGAGAGAGAUGCC [A22C A141G]	1.34
UACGUAGGUGGUUUUCCCCUGAUAGUGCUAAGGGGGCCUGGAGGUUUGGACUGGGCAGAGCUCAACACAGCGUGGCAAAGUGGCUGUGGCUAGACUGCCUCUCUGGAUUCCUCGUCACUCAGCAGGGCAUCUCUGAGAGAGAUGCC [A43G A141G]	1.29
UACGUAGGUGGUUUUCCCCUGAUAGUGCUAAGGGGGCCUGGAAGUUUGGACUGGGCAGAGCUCAACACAGCGUGGCAAAGUGGCUGUGGCUAGACUACCUCUCUGGAUUCCUCGUCACUCCGCAGGGCAUCUCUGAGAGAAAUGCC [G97A A121C]	0.12
UACGUAGGUGGUUUUCCCCUGAUAGUGCUAAGGGGGCCUGGAAGUUUGGACUGGGCAGAGCUCAACACAGCGUGGCAAAGUGGCAGUGGCUAGACUGCCUCUCUGGAUUCCUCGUCACUCAGCAGGGCAUCUCUGAGAGAAAUGCC [U85A]	0.09

Variant	self-cleavage
UACGUAGGUGGUUCUCCCCUGAUAGUGCUAAGGGGGCCUGGAAGUUUGGACUGGGCAGAGCCCAACACAGCGUGGCAAAGUGGCUGUGGCUAGACUGCCUCUCUGGAUUCCUCGUCACUCAGCAGGGCAUCUCUGAGAGAAAUGCC [U14C U62C]	0.09
UACGUAGGCGGUUUUCCCCUGGUAGUGCUAAGGGGGCCUGGAAGUUUGGACUGGGCAGAGCUCAACACAGCGUGGCAAAGUGGCUGUGGCUAGACUGCCUCUCUGGAUUCCUCGUCACUCAGCAGGGCAUCUCUGAGAGAAAUGCC [U9C A22G]	1.03
UACGUAGGUGGUUUUCCCCUGAUAGUGCUAAGGGGGCCUGGAAGUUUGGACUGGGCAGAGCUCAACACAGCGUGGCAAAGUGGCUGUGGCUAGACUGCCUCUCUGGAUUCCUUGUCACUCAGCAGGGCAUCUCUGAGAGAAAUACC [C113U G144A]	0.31
UACGUAGGUGGUUUUCCCCUGAUAGAGCUAAGGGGGCCUGGAAGUUUGGACUGGGCAGAGCCCAACACAGCGUGGCAAAGUGGCUGUGGCUAGACUGCCUCUCUGGAUUCCUCGUCACUCAGCAGGGCAUCUCUGAGAGAAAUGCC [U26A U62C]	0.04
UACGUAGGUGGUUUUCCCCUGGUAGUGCUAAGGGGGCCUGGAGGUUUGGACUGGGCAGAGCUCAACACAGCGUGGCAAAGUGGCUGUGGCUAGACUGCCUCUCUGGAUUCCUCGUCACUCAGCAGGGCAUCUCUGAGAGAAAUGCC [A22G A43G]	1.02
CACGUAGGUGGUUUUCCCCUGAUAGUGCUAAGGGGCCCUGGAAGUUUGGACUGGGCAGAGCUCAACACAGCGUGGCAAAGUGGCUGUGGCUAGACUGCCUCUCUGGAUUCCUCGUCACUCAGCAGGGCAUCUCUGAGAGAAAUGCC [U1C G36C]	1.26
UACGUAGGUGGUUUUCCCCUGAUAGUGCUAAGGGGGCCUGGAAGUUUGGACUGGGCAGAGCUCAAUACAGCGUGGCAAAGUGGCUGUGGCUAGACUGCCACUCUGGAUUCCUCGUCACUCAGCAGGGCAUCUCUGAGAGAAAUGCC [C66U U100A]	0.02
UACGUAGGUGGUUUUCCCCUGAUAGUGCUAAGGGGGCCUGGAAGUUUGGACUGGGCAGAGCUCAACACAGCGUGGCAAAGUGGCUGUGGCCAGACUGCCUCUCUGGAUUCCUCGUCACUCAGCAGGGCAUCUCUGAGAGAAAUACC [U91C G144A]	0.47
UACGUAGGUGGUUUUCCCCUGAUAGUGCUAAGGGGACCAGGAAGUUUGGACUGGGCAGAGCUCAACACAGCGUGGCAAAGUGGCUGUGGCUAGACUGCCUCUCUGGAUUCCUCGUCACUCAGCAGGGCAUCUCUGAGAGAAAUGCC [G36A U39A]	1.3
UACGUAGGUGGUUUCCCCUUGAUAGUGCUAAGGGGGCCUGGAAGUUUGGACUGGGCAGAGCUCAACACAGCGUGGCAAAGUGGCUGUGGCUAGACUGCCUCUCUGGAUUCCUCGUCACUCAGCAGGGCAUCUCUGAGAGAAAUGCC [U15C C19U]	1.08
UACGUAGGUGGUUUUCCCCUGAUAGUGCUAAGGGGGCCUGGAAGUUUGGACUGGGCAGAGCUCAACACAGCGCGGCAAAGUGGCUGUGGCUAGACUGCCUCUCUGGAUUCCUCGUCACUCAGCAGGGCACCUCUGAGAGAAAUGCC [U73C U130C]	1.81
UACGUAGGUGGUUUUCCCCUGAUAGUGCUAAGGGGGCCUGGAAGUUUGGACUGGGCAGAGCUCAACACAGCGUGGCAAAGUGGCUGUGGCUAGACUGCCUCUCUGGAUUCCUCGUCACUCAGCAUGGCAUCUCUGGGAGAAAUGCC [G125U A136G]	0.79
UACGUAGGUGGUUCUCCCCUGAUAGUGCUAAGGGGGCCUGGAAGUUUGGACUGGGCAGAGCUCAACACAGCGUGGCAAAGUGGCUGUGUCUAGACUGCCUCUCUGGAUUCCUCGUCACUCAGCAGGGCAUCUCUGAGAGAAAUGCC [U14C G89U]	0.05
UACGUAGGUGGUUUUCCCCUGAUGGUGCUAAGGGGGCCUGGAAGUUUGGACUGGGCAGAGCUCAACACAGCGUGGCAAAGUGGCUGUGGCUAGACUGCCUCUCUGGAUUCCUCGUCACUCAGCGGGGCAUCUCUGAGAGAAAUGCC [A24G A124G]	1.06
UACGUAGGUGGUUUUCCCCUGAUAGUGCUAAGGGGGCCUGGAAGUUUGGACUGGGCAGAGCUCAACACAGCGUGGCAGAGUGGCUGUGGCUAGACUGCCUCGCUGGAUUCCUCGUCACUCAGCAGGGCAUCUCUGAGAGAAAUGCC [A78G U102G]	0.2
UACGUAGGUGGUUUUCCCCUGAAAGUGCUAAGGGGGCCUGGAAGUUCGGACUGGGCAGAGCUCAACACAGCGUGGCAAAGUGGCUGUGGCUAGACUGCCUCUCUGGAUUCCUCGUCACUCAGCAGGGCAUCUCUGAGAGAAAUGCC [U23A U47C]	1.88
UACGUAGGUGGUUUUCCCCUGAUAAUGCUAAGGGGGCCUGGAAGUUUGGACUGGGCAGAGCUCAACACAGCGUGGCAAAGUGGCUGUGGCUAGACUGCCUCUCUGGAUUCCUCGUCUCUCAGCAGGGCAUCUCUGAGAGAAAUGCC [G25A A117U]	1.25
UACGUAGGUGGUUUUCCCCUGAUAGUGCCAAGGGGGCCUGGAAGUUUGGACUGGGCAGAGCUCAACACAGCGUGGCAAAGUGGCUGAGGCUAGACUGCCUCUCUGGAUUCCUCGUCACUCAGCAGGGCAUCUCUGAGAGAAAUGCC [U29C U87A]	0.16
UACGUAGGUGGUUUUCCCCUGAUAGUGCUAAGGGGGCCUGGAAGUUUGGACUGGGCAGAGCUCAACACAGCGUGGCAAAGUGGCUGUGGCUAGACUGCCUCUCUGGUUUCCUCGUCACUCAGCUGGGCAUCUCUGAGAGAAAUGCC [A107U A124U]	1.61
